{"source": "patent US11110171B2", "about": "“PD-1 related cancer therapy” (New York University, priority 2017, dated 2021)", "molecules": {"B1": {"name": "SAP: Recombinant human SAP (His tagged), signaling lymphocytic activation molecule-associated protein, purchased from Abcam (protein, UniProt O60880 1-128, looked up)", "SH2 domain-containing protein …": "MDAVAVYHGKISRETGEKLLLATGLDGSYLLRDSESVPGVYCLCVLYHGYIYTYRVSQTETGSWSAETAPGVHKRYFRKIKNLISAFQKPDQGIVIPLQYPVEKKSSARSTQGTTGIREDPDVCLKAP", "modifications": "His tag"}}, "molecular_target": "T1, SHP2PTP (the catalytic domain of SHP2) (Homo sapiens, UniProt Q06124)", "T1 construct": "purchased Abcam 42578 (SHP2 catalytic domain); 101112 (SAP)", "T1 sequence (Q06124 247-517 limits assumed)": "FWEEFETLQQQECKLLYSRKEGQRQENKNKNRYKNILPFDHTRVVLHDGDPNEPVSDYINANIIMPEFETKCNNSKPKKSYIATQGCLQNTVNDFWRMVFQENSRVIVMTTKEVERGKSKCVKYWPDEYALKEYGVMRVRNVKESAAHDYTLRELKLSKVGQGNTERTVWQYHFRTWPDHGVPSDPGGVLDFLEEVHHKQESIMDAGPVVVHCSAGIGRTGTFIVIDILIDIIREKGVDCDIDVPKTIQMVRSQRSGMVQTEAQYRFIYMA", "experiment": "Co-affinity enrichment of His-tagged SAP and GST-tagged SHP2PTP", "type": "binding", "settings": "recombinant proteins in the absence of T cell lysate", "description": "FIG. 3. SAP is indirectly associated with PD-1. (ai) Pervanadate treated Jurkat T cells were transiently transfected with GFP-tagged PD-1 or GFP alone; Whole cell lysates (WCL) were immunoprecipitated with an anti-GFP antibody (IP: GFP), and samples were analyzed by immunoblotting. (aii) Densitometry values of data shown in ai. (b) Jurkat T cells were transfected with plasmids directing expression of the indicated fluorescent proteins and after 24 hours cells were stimulated with anti-CD3 antibodies and recombinant PDL2, followed by live-imaging. Bar, 10 μm. […] (di) Jurkat T cells were transfected with different versions of GFP-tagged PD-1, as indicated, followed by treatment with pervanadate; Whole-cell lysates (Input) were immunoprecipitated with an anti-GFP antibody (IP: GFP), and samples were analyzed by immunoblotting. […] (ei) 293T cells were transfected with plasmid directing expression of GFP-SAP or a control GFP plasmid, followed by treatment with pervanadate; Lysates were pulled-down with the GST-tagged PD-1 and samples were analyzed by immunoblotting. […] (gi) SHP2 KD and scrambled control Jurkat T cells were transfected with GFP-tagged PD-1, followed by treatment with pervanadate; Lysates were immunoprecipitated with an anti-GFP antibody (IP: GFP), and samples were analyzed by immunoblotting. […] Samples were analyzed by immunoblot. […]"}
{"molecule": "B1", "values": [{"measurement": "direct interaction of SAP with SHP2 catalytic domain", "value": "lack of direct interaction"}]}
